Non-standard residues stand in square brackets, D forms with d. No end group written: not given here. Ala(4-thiazolyl) = N[C@@H](Cc1cscn1)C(=O)O
Experiments:
Test in all cases: cell-based or functional assay
[1] = target: T1, human GLP-1 receptor (human, UniProt P43220 24-463)
[2] = target: T2, human glucagon receptor (human, UniProt P47871 26-477)
[3] = target: T1, human GLP-1 receptor; remark: listed apart in the source
[4] = target: T2, human glucagon receptor; remark: listed apart in the source

T2 sequence (P47871 26-477): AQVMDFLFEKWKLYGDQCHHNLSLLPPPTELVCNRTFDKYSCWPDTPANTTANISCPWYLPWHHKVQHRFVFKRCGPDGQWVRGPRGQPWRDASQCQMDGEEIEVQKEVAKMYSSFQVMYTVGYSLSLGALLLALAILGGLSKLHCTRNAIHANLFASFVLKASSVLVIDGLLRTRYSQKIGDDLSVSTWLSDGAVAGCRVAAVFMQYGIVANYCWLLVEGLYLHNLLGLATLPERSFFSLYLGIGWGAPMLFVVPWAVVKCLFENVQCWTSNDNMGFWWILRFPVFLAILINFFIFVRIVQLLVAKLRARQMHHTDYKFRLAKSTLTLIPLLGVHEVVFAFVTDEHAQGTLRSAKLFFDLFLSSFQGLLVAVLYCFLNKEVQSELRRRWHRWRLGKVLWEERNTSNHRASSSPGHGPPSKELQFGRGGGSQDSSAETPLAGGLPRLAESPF

B1: SEQ ID NO: 4 (peptide)
peptide: [Ala(4-thiazolyl)]SQGTFTSDLSKQLESRRAQEFIEWLLAGGPESGAPPPS-OH
modifications: N-terminus assumed
SMILES: CC[C@H](C)[C@H](NC(=O)[C@H](Cc1ccccc1)NC(=O)[C@H](CCC(=O)O)NC(=O)[C@H](CCC(N)=O)NC(=O)[C@H](C)NC(=O)[C@H](CCCNC(=N)N)NC(=O)[C@H](CCCNC(=N)N)NC(=O)[C@H](CO)NC(=O)[C@H](CCC(=O)O)NC(=O)[C@H](CC(C)C)NC(=O)[C@H](CCC(N)=O)NC(=O)[C@H](CCCCN)NC(=O)[C@H](CO)NC(=O)[C@H](CC(C)C)NC(=O)[C@H](CC(=O)O)NC(=O)[C@H](CO)NC(=O)[C@@H](NC(=O)[C@H](Cc1ccccc1)NC(=O)[C@@H](NC(=O)CNC(=O)[C@H](CCC(N)=O)NC(=O)[C@H](CO)NC(=O)[C@@H](N)Cc1cscn1)[C@@H](C)O)[C@@H](C)O)C(=O)N[C@@H](CCC(=O)O)C(=O)N[C@@H](Cc1c[nH]c2ccccc12)C(=O)N[C@@H](CC(C)C)C(=O)N[C@@H](CC(C)C)C(=O)N[C@@H](C)C(=O)NCC(=O)NCC(=O)N1CCC[C@H]1C(=O)N[C@@H](CCC(=O)O)C(=O)N[C@@H](CO)C(=O)NCC(=O)N[C@@H](C)C(=O)N1CCC[C@H]1C(=O)N1CCC[C@H]1C(=O)N1CCC[C@H]1C(=O)N[C@@H](CO)C(=O)O
For B1, the “EC50 hGLP-1R, cAMP formation” value [1] was 3.3 nM, the “EC50 hGlucagon-R, cAMP formation” value [2] was 0.0007 nM and the “EC50 hGLP-1 R [pM], cAMP formation” value [3] was 3300 pM. The “EC50 hGLUC R [pM], cAMP formation” value [4] was 0.7 pM.

Source: patent US20150368311A1 (Sanofi, published 2015)
